According to US20150147274A1 (CANCER RESEARCH TECHNOLOGY, published 2015):
Substitutions are numbered along the chain they refer to.

B1: 109_G10 (scFv)
scFv: QMQLVQSGAEVKKPGAPVKVSCKVSGYTFTDYYMHWVQQAPGKGLEWMGLVDPEDGETIYAEKFQGRVTITADTSTDTAYMELSSLRSEDTAVYYCATDATTPYWFPRVWGQGTLVTVSSLEGGGGSGGGGSGGGASDIQMTQSPSSLSASVGDRVTITCQASQDISNYLNWYQQKPGRAPKVLIYDASNLETGVPSRFSGSGSGTEFTLTISNLRPDDFATYYCQQGDSFPLTFGGGTKVEIK
notes: not shown: 6xHis/tri-FLAG tags
B2: 109_H1 (scFv)
scFv: B1 scFv with F106G, P107V, R108Q, V109K
notes: as for B1
B3: 110_B7 (scFv)
scFv: B1 scFv with A100G, T101L, T102W, P103M, W105Y, F106G, P107M, R108D
notes: as for B1
B4: 110_B5 (scFv)
scFv: B1 scFv with F106G, P107M, R108M, V109S
notes: as for B1
B5: 109_H11 (scFv)
scFv: B1 scFv with F106G, P107M, R108A, V109Q
notes: as for B1
B6: 110_B9 (scFv)
scFv: B1 scFv with F106S, R108I, V109W
notes: as for B1
B7: 109_H5 (scFv)
scFv: B1 scFv with F106G, P107A, R108Q, V109E
notes: as for B1
B8: 109_H7 (scFv)
scFv: B1 scFv with V109W
notes: as for B1
B9: 110_A2 (scFv)
scFv: B1 scFv with F106G, P107M, R108S, V109T
notes: as for B1
B10: 110_B3 (scFv)
scFv: B1 scFv with A100M, T101E, T102L, P103N, W105Y, F106G, P107M, R108D
notes: as for B1
B11: 109_G12 (scFv)
scFv: B1 scFv with F106G, P107M, R108A, V109A
notes: as for B1
B12: 109_H6 (scFv)
scFv: B1 scFv with V109T
notes: as for B1
B13: 109_H8 (scFv)
scFv: B1 scFv with V109S
notes: as for B1
B14: 110_B6 (scFv)
scFv: B1 scFv with A100T, T101D, T102L, P103K, W105Y, F106G, P107M, R108D
notes: as for B1
B15: 110_B8 (scFv)
scFv: B1 scFv with F106G, P107M, R108M, V109L
notes: as for B1
B16: 109_H9 (scFv)
scFv: B1 scFv with F106G, P107M, R108T, V109K
notes: as for B1
B17: 110_A5 (scFv)
scFv: B1 scFv with F106Y, R108F
notes: as for B1
B18: 110_A3 (scFv)
scFv: B1 scFv with F106G, P107V, R108Q
notes: as for B1
B19: 110_A9 (scFv)
scFv: B1 scFv with F106G, P107M, R108A, V109G
notes: as for B1
B20: 110_A8 (scFv)
scFv: B1 scFv with F106C, P107M, R108A, V109I
notes: as for B1
B21: 109_H3 (scFv)
scFv: B1 scFv with F106G, P107M, R108Q, V109Q
notes: as for B1
B22: 109_G11 (scFv)
scFv: B1 scFv with F106W, P107T, R108A, V109N
notes: as for B1

biological target: T1, MET928 (cMET protein derived from construct 25-928) (human, UniProt P08581 25-928); experiment: ELISA, soluble scFv
T1 construct: MET ectodomain, residues 1-24 are the leader; produced in Lec 8 cells; background text says the ectodomain is furin-cleaved into alpha (25-307) and beta chains; biotinylated form used in selections; also called MET928 extracellular domain; Met extracellular domain
T1 sequence (P08581 25-928): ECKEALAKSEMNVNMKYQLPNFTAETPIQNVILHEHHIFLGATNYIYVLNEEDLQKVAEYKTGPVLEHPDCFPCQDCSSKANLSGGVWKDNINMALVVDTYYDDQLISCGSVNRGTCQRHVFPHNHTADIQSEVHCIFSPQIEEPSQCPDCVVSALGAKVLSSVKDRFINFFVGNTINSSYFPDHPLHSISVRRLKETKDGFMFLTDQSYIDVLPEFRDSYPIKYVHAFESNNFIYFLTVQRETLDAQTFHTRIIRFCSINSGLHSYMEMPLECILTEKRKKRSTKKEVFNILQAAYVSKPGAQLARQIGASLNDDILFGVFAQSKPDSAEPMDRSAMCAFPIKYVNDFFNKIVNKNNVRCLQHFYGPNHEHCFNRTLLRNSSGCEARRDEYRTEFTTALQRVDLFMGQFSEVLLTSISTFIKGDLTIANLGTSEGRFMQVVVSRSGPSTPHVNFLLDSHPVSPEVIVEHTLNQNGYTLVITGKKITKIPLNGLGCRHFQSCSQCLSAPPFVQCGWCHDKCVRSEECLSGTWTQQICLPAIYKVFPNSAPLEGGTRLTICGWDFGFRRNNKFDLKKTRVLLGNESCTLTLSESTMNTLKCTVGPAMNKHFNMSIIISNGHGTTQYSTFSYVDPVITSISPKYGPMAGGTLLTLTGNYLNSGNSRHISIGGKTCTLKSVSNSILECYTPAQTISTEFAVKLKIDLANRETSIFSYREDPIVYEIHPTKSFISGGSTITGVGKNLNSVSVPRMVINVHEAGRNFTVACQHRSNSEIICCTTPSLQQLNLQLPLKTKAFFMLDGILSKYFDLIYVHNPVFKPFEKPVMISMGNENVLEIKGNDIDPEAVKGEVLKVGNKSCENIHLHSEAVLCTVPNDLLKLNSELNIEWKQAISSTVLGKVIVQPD

Row | binding result | Binder
1 | binds | B1
2 | binds | B2
3 | binds | B3
4 | binds | B4
5 | binds | B5
6 | binds | B6
7 | binds | B7
8 | binds | B8
9 | binds | B9
10 | binds | B10
11 | binds | B11
12 | binds | B12
13 | binds | B13
14 | binds | B14
15 | binds | B15
16 | binds | B16
17 | binds | B17
18 | binds | B18
19 | binds | B19
20 | binds | B20
21 | binds | B21
22 | binds | B22
